Numbering of substitutions follows the chain as printed. In names and notes the source's numbering stands.
T1: HsRad52 protein (HsRad521-212) (Homo sapiens, UniProt P43351)
T1 construct: hexahistidine (N, cleaved yes); made in house; host or cells: E. coli JM109 (DE3), pET15-b
T1 sequence (P43351 1-212): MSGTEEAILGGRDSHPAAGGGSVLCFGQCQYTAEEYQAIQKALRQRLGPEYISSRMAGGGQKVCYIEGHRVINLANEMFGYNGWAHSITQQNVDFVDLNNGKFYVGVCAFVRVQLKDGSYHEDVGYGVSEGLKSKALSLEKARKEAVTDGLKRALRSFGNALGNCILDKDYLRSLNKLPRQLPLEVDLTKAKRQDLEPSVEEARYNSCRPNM

T2: HsRad52(1-212) wild type (Homo sapiens, UniProt P43351 SEQ:1-212)
T2 sequence: T1 sequence (P43351 1-212)

B1: R55A: point mutant of HsRad521-212, arginine at position 55 substituted with alanine (protein)
chain: MSGTEEAILGGRDSHPAAGGGSVLCFGQCQYTAEEYQAIQKALRQRLGPEYISSAMAGGGQKVCYIEGHRVINLANEMFGYNGWAHSITQQNVDFVDLNNGKFYVGVCAFVRVQLKDGSYHEDVGYGVSEGLKSKALSLEKARKEAVTDGLKRALRSFGNALGNCILDKDYLRSLNKLPRQLPLEVDLTKAKRQDLEPSVEEARYNSCRPNMALGHPQLQQVTSPSRPSHAVIPADQDCSSRSLSSSAVESEATHQRKLRQKQLQQQFRERMEKQQVRVSTPSAEKSEAAPPAPPVTHSTPVTVSEPLLEKDFLAGVTQELIKTLEDNSEKWAVTPDAGDGVVKPSSRADPAQTSDTLALNNQMVTQNRTPHSVCHQKPQAKSGSWDLQTYSADQRTTGNWESHRKSQDMKKRKYDPS
B2: Y65A: point mutant of HsRad521-212, tyrosine at position 65 substituted with alanine (protein)
chain: B1 chain with A55R, Y65A
B3: R70A: point mutant of HsRad521-212, arginine at position 70 substituted with alanine (protein)
chain: B1 chain with A55R, R70A
B4: H69A: point mutant of HsRad521-212, histidine at position 69 substituted with alanine (protein)
chain: B1 chain with A55R, H69A

How the values were obtained:
[1] = molecular target: T1, HsRad52 protein (HsRad521-212); test: Screening for HsRad52-binding compounds by one-dimensional 1H-NMR; details: calculated from signal intensity of the NMR spectrum; binding force of Compound A defined as 1
Experimental: Among the ligand candidate compounds obtained in Example 8, one candidate compound was in view of the binding free energy change (ΔG) obtained by AutoDock and solubility. The compound was dissolved in DMSO-d6 to be adjusted to 455.7 μM. The HsRad521-212 protein prepared in Example 3 was dissolved to 152 μM using buffer solution A (dissolved in heavy water to 10 mM Tris-dll, pH 7.5)/200 mM KCl). Using them, two types of samples namely the ligand candidate compound alone and the ligand candidate compound to which the HsRad52 protein was added at 1:1 were prepared.
The final concentration of the ligand candidate compound is 21.7 μM.
The final concentrations of the ligand candidate compound and the HsRad52 protein are 21.7 μM, respectively.
One-dimensional ^1H-NMR of the individual samples was measured, to observe whether or not any change existed between prior to and after the addition of HsRad52 protein. Consequently, the NMR spectrum of a sample of ID AK968-41170131 with a chemical name of cis-6-[4-(4-isobutyl-phenyl)-5-methyl-thiazol-2-ylcarbamoyl]-3,4-dimethyl-cyclohex-3-enec arboxylic acid (Compound A, −11.71 kcal/mol) as such ligand candidate compound is shown in FIGS. 5 through 7. […] In FIG. 6, a slight increase of the base line due to the mixing with the protein can be observed, but apparently, Compound A-derived two signals around 7.5 ppm disappeared.
Herein, all the NMR spectra were taken in deuterium, using Bruker DRX500 NMR spectrophotometer at 298 K.
Using such method, the plural ligand candidate compounds obtained in Example 8 were adjusted to various concentrations to measure the NMR spectra. Compounds detected with the interaction with HsRad52 are shown below in Table 4. Herein, the strength of a binding force relatively calculated from the signal intensity of the NMR spectrum is shown as relative binding force, provided that the binding force of the Compound A is defined as 1.

HsRad52(1-212) wild type = molecular target: T2, HsRad52(1-212) wild type; test: EMSA; 50 mM Hepes-KOH pH 7.5, 40 mM KCl, 1 mM MgCl2, 37 C, glutaraldehyde fixed; 0.25-2 uM protein; complex formation inhibited by Compound A; details: tags: His6 removed by thrombin; chain copies: 11 (undecameric ring, stated); label: 5'-32P
Experimental: For gel shift assay, a reaction mixtures containing final concentratins of 50 mM Hepes-KOH (pH 7.5), 40 mM KCl, 1 mM MgCl₂, 0.1 mg/ml BSA, 1 mM DTT, 2% glycerol and 0.25 to 2 μM mutants of HsRad52₁₋₂₁₂ was used. For single-stranded DNA binding assay, 1 μl of 1 μM ³²P-labeled SAT-1 single-stranded DNA (nucleotide) was mixed with 9 μl of the reaction mixture, which was incubated at 37° C. for 5 minutes. Subsequently, 1 μl of 12% glyceraldehyde solution was added, to immobilize HsRad52 and the single-stranded DNA. After incubating for 20 minutes, a 6-fold volume of staining solution for electrophoresis was added. The reaction mixture was resolved by 1% agarose gel electrophoresis in 0.5×TBE buffer at 3.3 V/cm and ambient temperature. After electrophoresis, the gel was dried for detection by autoradiography. The amount of the free single-stranded DNA was assayed by an image analyzer BAS2500 manufactured by Fuji Film.
Subsequently, the mixture was fixed with 0.2% glutaraldehyde for 20 minutes and electrophoresed on 1% agarose gel.

[2] = tested on: SAT-1 single-stranded DNA; test: Gel shift assay: single-stranded DNA binding of HsRad521-212 point mutants; details: 0.25 to 2 μM mutant; compared with wild type HsRad521-212
Experimental: The single-stranded and double-stranded DNAs binding activities of the six types of point mutants thus prepared from HsRad521-212 were detected by gel shift assay method. The substrate DNA used by the method was prepared as described below. The pGsat4 of double-stranded DNA was prepared by inserting a 198-bp DNA fragment from human α-satellite into a plasmid PGEM-T East vector (manufactured by Promega). The 3.2-kb plasmid DNA was prepared by a gentle lysis method using sarcosyl, without alkali modification of the host E. coli, so as to avoid the irreversible denaturation. As the single-stranded DNA, a 50-base oligonucleotide purified by HPLC as shown in SEQ ID NO:2 was purchased from Roche Biochemical.
The 5′ terminus of the oligonucleotide was labeled with radioactivity in the presence of [γ^32P] ATP using T4 polynucleotide kinase (New England Biolabs) and then purified on a column Chromaspin-10 (manufactured by Clontech).
For gel shift assay, a reaction mixtures containing final concentratins of 50 mM Hepes-KOH (pH 7.5), 40 mM KCl, 1 mM MgCl2, 0.1 mg/ml BSA, 1 mM DTT, 2% glycerol and 0.25 to 2 μM mutants of HsRad521-212 was used. For single-stranded DNA binding assay, 1 μl of 1 μM ^32P-labeled SAT-1 single-stranded DNA (nucleotide) was mixed with 9 μl of the reaction mixture, which was incubated at 37° C. for 5 minutes. Subsequently, 1 μl of 12% […] solution was added, to immobilize HsRad52 and the single-stranded DNA. After incubating for 20 minutes, a 6-fold volume of staining solution for electrophoresis was added. The reaction mixture was resolved by 1% agarose gel electrophoresis in 0.5×TBE buffer at 3.3 V/cm and ambient temperature. After electrophoresis, the gel was dried for detection by autoradiography. The amount of the free single-stranded DNA was assayed by an image analyzer BAS2500 manufactured by Fuji Film. […] Compared with the wild type HsRad521-212, the single-stranded DNA binding activity of all of the point mutants was lowered.

| Molecule | Relative Binding force [1] | Single-stranded DNA binding activity [2] | further results |
| --- | --- | --- | --- |
| CCCCc1ccc(-c2nc(NC(=O)C3C4CCC(O4)C3C(=O)O)sc2C)cc1 (stereo not drawn) [C, 3-[4-(4-Butyl-phenyl)-5-methyl-thiazol-2-ylcarbamoyl]-7-oxa-bicyclo[2.2.1]heptane-2-carboxylic acid] | 0.5 | – | – |
| CC1=C(C)CC(C(=O)Nc2nc(-c3ccc(C(C)C)cc3)c(C)s2)C(C(=O)O)C1 (stereo not drawn) [Compound B, 6-[4-(4-Isopropyl-phenyl)-5-methyl-thiazol-2-ylcarbamoyl]-3,4-dimethyl-cyclohex-3-enecarboxylic acid] | 0.5 | – | – |
| CC1=C(C)CC(C(=O)Nc2nc(-c3ccc(C)cc3C)c(C)s2)C(C(=O)O)C1 (stereo not drawn) [D, 6-[4-(2,4-Dimethyl-phenyl)-5-methyl-thiazol-2-ylcarbamoyl]-3,4-dimethyl-cyclohex-3-enecarboxylic acid] | 0.2 | – | – |
| CCCc1ccc(-c2nc(NC(=O)C3CC(C)=C(C)CC3C(=O)O)sc2C)cc1 (stereo not drawn) [E, 3,4-Dimethyl-6-[5-methyl-4-(4-propyl-phenyl)-thiazol-2-ylcarbamoyl]-cyclohex-3-enecarboxylic acid] | 0.5 | – | – |
| ATTTCATGCTAGACAGAAGAATTCTCAGTAACTTCTTTGTGCTGTGTGTA (ssDNA) [SAT-1 50-mer] | – | – | binding result (HsRad52(1-212) wild type): binds |
| B1 | – | lost most of the binding activity to the single-stranded DNA | – |
| B2 | – | lost most of the binding activity to the single-stranded DNA | – |
| B3 | – | lost most of the binding activity to the single-stranded DNA | – |
| B4 | – | lost most of the binding activity to the single-stranded DNA | – |
